The record followed here is the nanobody polyreactivity screen of Harvey et al. (2022).

A short description of the series: yeast display, Sf9 membrane polyspecificity reagent, FACS + sequencing; frameworks hold sequencing errors. In short, it runs like this: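 Galactose-induced (36–48 hours) yeast carrying a synthetic nanobody display library were exposed to 10% biotinylated, detergent-solubilized Sf9 membrane reagent at 4 °C for 1 hour. FACS followed streptavidin microbead enrichment, using low and high (top ~1%) gates for expression (anti-HA) and reagent binding (streptavidin). Colony PCR, MiSeq 2 × 250 sequencing and CDR-length filtering followed. Labels for polyreactivity reflect the gate of origin.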
Consider “QVQLVESGGGLVQAGGRLRLSCAASGSTFRVYAMGWYRQAPGKERELFAAIRSGGGTNYADSVKGRFTISRDNAKNTVYLQMNSLKPEDTAVYYCAREAATDISPGYDYWGQGTQVTVSS”, for which the “polyreactivity (PSR sort gate)” value is “low polyreactivity”.

Take “QVQLVESGGGLFQAGGSLRLSCAASGSTFGFNAMGWYRQAPGKEREFVAAINTSGGNTYYADSVKGRFTISRDNAKNTVYLQMNSLKPEDTAVYYCNAREGHLYGYPYGYWGQGTQVTVSS”: the “polyreactivity (PSR sort gate)” value is “low polyreactivity”. The result for “QVMLVESGGGLVQAGGSLRLSCAASGSTFEYYAMGWYRQAPGKERELVATISIDGRTNYADSVKGRFTISRDNAKNTVYLQMNSLNPEDTAVYYCGKRVVVWYFGTGDYWGQGTQVTVSS” reads “low polyreactivity”; that for “QVQLVESGGGLVQAGGRLRLSCAASGLTLQRYTKGWYRQAPGTERELVAAISRSGGGTYYADSVKGRFTISRDNAKNTVYLEMNSLKPEDTAVYYCAAGWYVYRPSRGYGYWGQGTQVTVSS”, “high polyreactivity”. As for “QVQLVESGGGLVQAGGSLSLSCAASGIIFGRNALGWYRQAPGKEREMVAGITRRGARTYYADSVKGRFTISRDNAKNTVDLQMNSLKPEDTAVYYCATYSVQTDYGRGDYWGQGTQVTVSS”, the “polyreactivity (PSR sort gate)” value was “high polyreactivity”. The result for “QVQIVESGGGLVQAGGSLRLSCAASGSTFRLYVMGWYRQAPGKERELVARISSRGGSTYYADSVKGRFTISRDNAQNTVYLQMTSLKPEDTAVYYCAKDVDLDTWKYDYWGQGTKVTVSS” reads “low polyreactivity”. With “QVQLQESGGGLVQAGGSLRLSCAASGDNLEADDMGWYRQAPGKERELVASITDGGSTNCADSMKGRSTICRDNAKITVYLQMNSLKLEDTAVYYCAAIAYPDVPTYFDYDSDYFYWGQGTLVTVSS”, the “polyreactivity (PSR sort gate)” value is given as “high polyreactivity”. With “QVQLVESGGGLVQAGGSLRLSCAASGFTLGYYTMGWYRQAPGKERELVAAIRSNGGSTYYADSVKGRFTISRDNAKNTVYLQMNSLKPEDTAVYYCAADHAYFLTHSSYLFYYWGQGTQVTVSS”, the “polyreactivity (PSR sort gate)” value was “high polyreactivity”.

On to “QVQLEESGGGLVQAGGSLRLSCAASGFIITGYTMGWYRQAPGKERELVAVISYSGGNTYYADSVKGRFTSSRDNEKNTVYLQMISVKPDYTAVYYCNKLTYKGYEYWGQGTQVNVSS”, for which the “polyreactivity (PSR sort gate)” value is “high polyreactivity”. Turning to “QVQLVESGGGLVQAGGSLRLSCAASGLIFVNAMGWYRQAPGKEREFVAAITYSTGSTYYADSVKGRFTISRDNAKNTVYLQMNSLKPEDTAVYYCAKDRSGHGTERDYWGQGTQVTVSS”, the “polyreactivity (PSR sort gate)” value is on record as “low polyreactivity”.

For “QVQLQESGGGLVQAGGCLRLRCAASRNISGSSDLGWYHQAPGKEREFVASMTSGGTTYYADSVKGRFTISRDNAKYTVYLQMKSQKTEDTAVYYCAVGDPADAEFGYWGQGTQVTVSS”, the “polyreactivity (PSR sort gate)” value was “low polyreactivity”. For the sequence “QVQLVESGGGLVQAGGSLRLSCAASGRTFYEYAMGWYRQAPGKERELVAAITIDGSTNYADSVKGRFTISRDNAKNTVYLQMNSLKPEDTAVYYCNARYLLYHGQHYRPYNYWGQGTQVTVSS”, the “polyreactivity (PSR sort gate)” value is reported as “high polyreactivity”. Turning to “QVQLVESGGGLVQAGGSLRLSSAASGFIFYDYAMGWYRQAPGKERALVAAIRSSDGGTYYADSVKGRFTISRDNAKNTVYLQMNSLKPEDTAVYYCAARPSYYDYDYWGQGTQVTVSS”, the “polyreactivity (PSR sort gate)” value was “low polyreactivity”.

As to “QVQLVESGGGLVQAGGSLRLSCAASGLTFPLYAMGWYRPAPGKEREFVAAITVSGVSTSYADSVKGRFTISRDNAKNTVYLQMNSLKPEDTAVYYCAADYYIWTYWDVYYWGQGTQVTVSS”, the “polyreactivity (PSR sort gate)” value was “high polyreactivity”. The value for “QVQLVESGGGLVQAGGSLRLSCAASGITFPLYAMGWYRQAPGKERELVAAITSTGGTTYYADSVKGRFTISRDNAKNTVYLQMNSLKPEDTAVYYCAAEWLVYGYQRGYYYWGQGTQVTVSS” was “high polyreactivity”; that for “QVQLLESGGGLVQAGGSLRLSCAASGLIYVNNPMGWYRKATGKETELVATISSGVSTNYADSVKGRFTISRENAKNSVYLHMNSLKPEDTAVYYCNKGQTVSRGYRLYERYDYWGQGTQVTVSS” was “low polyreactivity”; that for “QVQLVESGGGLVQAGGSLRLSCAASGSTFLYYAMGWYRQAPGKESELVAAIDSGGSTYYADSVKGRFTISRDNAKNTVYLQMNSLKPEDTAVYYCNADPPPEYYPDKDNYWGQGTQVTVSS” was “low polyreactivity”. Consider “QVQLVESGGGLVQAGGSLRLSCAASGSIVGYYAMGWYRQAPGKEREFVARISSSTDSTYYADSVKGRFTISRDNAKKTVYLQMNSLKPEDTAVYYCNADDTWYYGYWGQGTQVTVSS”, for which the “polyreactivity (PSR sort gate)” value is “low polyreactivity”. On to “QVQLVESGGGLVQAVGSLRLSCAASGFILTRYAMGWYRQAPGKERELVAGIRLRGGSTYYADSVKGRFTISRDNAKNTVYLQMNSLKPEDTAVYYCAARYYYQYDYWGQGTQVTVSS”, for which the “polyreactivity (PSR sort gate)” value was “high polyreactivity”. As for “QDQHVESGGGLVQAGGSLRLSCAASGLTFDQYAMGWYRQAPGKERELVAAISGSDSTYYADSVKGRFTISRDNAKNTVYLQMNSLKPEDTAVYYCAASGDYVNIITGERFDARLYDYWGQGTQVTVSS”, the “polyreactivity (PSR sort gate)” value is “low polyreactivity”. The result for “QVQLVESGGGLVQAGGSLRLSCAASGITFSGYDMGWYRQAPGKERELVADITISTGSTYYADSVKGRFTISRDNANNTVYLQMNSLKPEDTAVYYCAADWQQDRTVVLPSWGHAYDSWGQGTQVTVSS” reads “low polyreactivity”; that for “QVQLVESGGGLVQAGGSLRLSCAASGLIFYRYAMGWYRQAPGKERELVADISWSGGTTYYADSVKGRFTISRDNAKNTVYLQMNSLKPEDTAVYYCAARSVPSPERGFYYWGQGTQVTVSS”, “high polyreactivity”. As for “QVQLEESGGGLVQAGGSLRLSCAASGFIFTPYAMGWYRQAPGKERELVAAISRSGGSTYYADSVKGRFTISRDNAKNTVYLQMNSLKPEDTAVYYCAADVYRTAYYYGSYYWGQGTQVTVSS”, the “polyreactivity (PSR sort gate)” value is given as “high polyreactivity”. Take “QVQLVESGGGLVQAGGSLRLSCAASGRTFYRNAMGWYRQAPGKERELVARINDGAGTYYADSVKGRFTISRDNAKNTVYLQMNSLKPEDTAVYYCADDTWGTPTPFVHYPEFEHWGQGTQVTVSS”: the “polyreactivity (PSR sort gate)” value is listed as “low polyreactivity”. Turning to “QVQLVESGGGLGQAGGSLRLSCAASGSIFSANAMGWYRQAPGKERELVASITGDGSTNYADSVKGRFTISRDNAKNTVYLQMNSLKPEDTAVYYCAADIGSWYDYWGQGTQVTVSS”, the “polyreactivity (PSR sort gate)” value was “low polyreactivity”. The value for “QVQLVESGGGLVQAGGSLRLSCAASGSNFDDYVMGWYRQAPGKERELVAGINSRGTSTDYADSVKGRFTISRDNAQNTVYLQMNSLKPEDTAVYYCAADDSHGYDYWGQGTQVTVSS” was “low polyreactivity”; that for “QVQLVESGGGLVQAGGSLRLSCAASRFIFGKYAMGWYRQAPGKEREFVAAITRSGGSTYYADSVKGRFTISRDNAKNTVYLQMNSLKPEDTAVYYCAAYSLKYYNGYDYWGQGTQVTVSS” was “high polyreactivity”. For the sequence “QVQLVESGGGLVQAGGSLRLSCAASGRTFQFYAMGWYRQAPGKERELVAAITYSGDSTYYADSVKGRFTISRDNAKNTVYLQMNSLKPEDTAVYYCAAGVWFYWYEYDYWGQGTQVTVSS”, the “polyreactivity (PSR sort gate)” value was “high polyreactivity”.

As for “QVQLVESGGGLVQAGGSLRLSCAASGSTFHFYAMGWYRQAPGKERELVASITSRGGNTHYADSVKGRFTISRDNAKNTVYLQMNSLKPEDTAVYYCAARGGWYGTYDYWGQGTQVTVSS”, the “polyreactivity (PSR sort gate)” value is “low polyreactivity”. On to “PVQLQESGGGLVQAGGSLRLSCAARGSIFKVVDMGLYRQAPAKEREFVATIGEGGNTYYADSVKGRFTISRDNAKNTVYLQMNSLKPEDTAVYFSAVVLGTSYRYTYWGQGTQVTVSS”, for which the “polyreactivity (PSR sort gate)” value is given as “low polyreactivity”. On to “QVQLVESGGGLVQAGGSLRLSCAASGRIFGDNALGWYRQAPGKERELVAAITWSGGSTYYADSVKGRFTISRDNAKNTVYLQMNSLKPEDTAVYYCAADSHRDSSEMDYWGQGTQVTVSS”, for which the “polyreactivity (PSR sort gate)” value is “low polyreactivity”. On to “QVQLVESGGGLVQAGGSLRLSCAATGSTFRPYAMGWYRQAPGKERELVAAITTGGSTNYADSVKGRFTISRDNAKNTVYLQMNSLKPEDTAVYYCNADYDVLNWGYYDWGYDYWGQGTQVTVSS”, for which the “polyreactivity (PSR sort gate)” value is “low polyreactivity”.

As for “QVQLVESGGCLVQAGCSLRLSCAASGSTFYSYAMGWYRQAPGKERELVAAINWDGVSTYYADSVKGRFTISRDNAKNTVYLQMNSMKPEDTAVYFCAAELFYGYRISGTYYYWGQGTQVTVSS”, the “polyreactivity (PSR sort gate)” value is reported as “low polyreactivity”. The result for “QVQLVESGGGLVEAGGSLRLSCAASGIIFYGYDMGWYREAPGKERELVAGITVSGGTYYADSVKGRFTISRDNAKNTVYLQMNSLKPEDTAVYYSARDQWPYVHGKYAYWGQGTQVTVSS” reads “low polyreactivity”; that for “QVQLVESGGGLVQAGGSLRLSCAASGIFAWNAMGWYRQAPGKERELVAAISWSGGSTYADSVKGRFTISRDNAKNTVYLQMNSLKPEDTAVYYCAKVSSLTSKSDYWGQGTQVTVSS”, “low polyreactivity”.

For the sequence “QVQLVESGGGLVQAGGSLRLSCAASGIIFITYAMGWYRQAPGKERELVAAITSDGNTNYADSVKGRFTISRDNAKNTVYLQMNSLKPEDTAVYYCNAETQYGVLSWHSTRHDYWGQGTQVTVSS”, the “polyreactivity (PSR sort gate)” value is “low polyreactivity”.

As to “QVQLVESGGGLVQAGGSLRLSRAASGSIFVSNAMGWYRQAPGKERELVAAIRGVDSTYYADSVKGRFTISRDNAKTTVYLQMNSLKPEDTAVYYCATRGPGYPRYYDWGQGTQVTVSS”, the “polyreactivity (PSR sort gate)” value is “high polyreactivity”.

With “QDQLVDSGGGLVQAGGSLRLSCAASGRIFTINAMGWYRQAPGKERELVAAITYSGGSTYADSVKGRFTISRDNAKNTVYLQMNSLKPEDTAVYYCNAKLTWSRRYVRYNYWGQGTQVTVSS”, the “polyreactivity (PSR sort gate)” value is on record as “high polyreactivity”. Take “QVQLVESGGGLVQAGGSLRLSCAASGRTFYFYAMGWYRQAPGKERELVASITSSGGNTYYADSVKGRVTISRDNAKNTVYLQMNSLKPEDTAVYYCAARWFPWLQWKRYDYWGQGTQVTVSS”: the “polyreactivity (PSR sort gate)” value is “low polyreactivity”. Turning to “QVQLVESGGGLVQAGGTLRLSCAASGYTLTINVMGWYRPAPGKERELVAAITSSGASTNYADSVKGRFTISRDNAKNTVYLQMNSLKPEDTAVYYCNVGNEHQSDFVVPFDYNHWGQGTQVTVSS”, the “polyreactivity (PSR sort gate)” value is “low polyreactivity”. The value for “QVQLVESGGGLVQAGGSLRLSCAASGISFYRYAMGWYRQAPGKERELVAAITGSGDSTYYADSVKGRFSISRDNAKNTVYLQMNSLKPEDTAVYYCNTDYGRRYDYWGQGTQVTVSS” was “high polyreactivity”.
